One data set addresses T1, Bdp1 (B double prime) (Saccharomyces cerevisiae, UniProt P46678 1-594).
T1 construct: Bdp1, S. cerevisiae, PCR amplified from genomic DNA; Cloned in pET21b(+) at SalI and NotI; The methods cite the purification of B''(138-594) only as the procedure followed; also called subunit of TFIIIB
T1 sequence: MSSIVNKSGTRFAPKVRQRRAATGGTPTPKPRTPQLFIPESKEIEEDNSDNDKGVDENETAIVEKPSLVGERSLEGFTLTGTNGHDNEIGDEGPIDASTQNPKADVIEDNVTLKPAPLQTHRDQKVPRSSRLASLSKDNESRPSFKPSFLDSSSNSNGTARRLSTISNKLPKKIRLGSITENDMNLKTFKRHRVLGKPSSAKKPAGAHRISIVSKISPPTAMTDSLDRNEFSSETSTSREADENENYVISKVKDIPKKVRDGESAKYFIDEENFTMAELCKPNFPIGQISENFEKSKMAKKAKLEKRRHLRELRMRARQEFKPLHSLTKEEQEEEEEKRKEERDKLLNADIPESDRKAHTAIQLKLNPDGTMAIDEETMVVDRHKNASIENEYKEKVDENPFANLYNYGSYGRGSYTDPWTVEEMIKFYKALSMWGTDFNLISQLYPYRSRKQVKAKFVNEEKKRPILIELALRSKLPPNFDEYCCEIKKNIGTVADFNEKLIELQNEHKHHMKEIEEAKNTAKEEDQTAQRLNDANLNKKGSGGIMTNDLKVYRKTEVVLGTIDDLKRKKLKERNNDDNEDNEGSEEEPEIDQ
As to the kind of experiment: cryo-EM structure; Pol III OC, 4.1 Å (TFIIIB 4.7 Å with soft mask): same assembly on the OC scaffold with a 10-nt mismatched bubble. As to conditions: both partners purified.

In data set [1] the target is T2, RNA polymerase III (17 subunits, incl. C160, C82/C34/C31, C53);Brf1N-TBPc-Brf1C chimera;Bdp1 (Saccharomyces cerevisiae;Saccharomyces …, UniProt P04051;P22276;P32349;P25441;P07703;P36121;P32910;P17890;P35718;P20434;P20435;P28 …, |internal_change|). As to the kind of experiment: cryo-EM; ITC; 4.1 Å; EMD-7530; PIC assembled at room temperature; assembly buffer not given in the material. As to conditions: protein: native;recombinant;recombinant; tags: TAP tag on C53 C terminus (TEV-cleaved, calmodulin eluted);C-terminal 6xHis;C-terminal 6xHis; copies: 1;1;1;1;1;1;1;1;1;1;1;1;1;1;1;1;1;1;1; label: biotin 5' on strand 3; mismatched bubble with RNA (strand 4, RNA written as printed); strands 2 and 3 both anneal to strand 1 (nick between them).

Data set [2] concerns the target RNA polymerase III (17 subunits, incl. C160, C82/C34/C31, C53);Brf1N-TBPc-Brf1C chimera;Bdp1 Δ355-372 (Saccharomyces cerevisiae;Saccharomyces …, UniProt P04051;P22276;P32349;P25441;P07703;P36121;P32910;P17890;P35718;P20434;P20435;P28 …, |internal_change|del355-372). As to the kind of experiment: cryo-EM; iOC, Brf1 ZR and C34 WH1 disordered; 8.5 Å; EMD-7534; PIC assembled at room temperature; assembly buffer not given in the material. To be noted: protein: native;recombinant;recombinant; tags: TAP tag on C53 C terminus (TEV-cleaved, calmodulin eluted);C-terminal 6xHis;C-terminal 6xHis; copies: 1;1;1;1;1;1;1;1;1;1;1;1;1;1;1;1;1;1;1; label: biotin 5' on strand 3; strand 1 fully paired; strands 2 and 3 both anneal to strand 1 (nick between them).

Data set [3] concerns the target T2, RNA polymerase III (17 subunits, incl. …). As to the kind of experiment: cryo-EM; nOC, spontaneously melted; 4.8 Å; EMD-7532; PIC assembled at room temperature; assembly buffer not given in the material. To be noted: protein: native;recombinant;recombinant; tags: TAP tag on C53 C terminus (TEV-cleaved, calmodulin eluted);C-terminal 6xHis;C-terminal 6xHis; copies: 1;1;1;1;1;1;1;1;1;1;1;1;1;1;1;1;1;1;1; label: biotin 5' on strand 3; strand 1 fully paired; strands 2 and 3 both anneal to strand 1 (nick between them).

Data set [4] shares this target. As to the kind of experiment: cryo-EM; OC; 4.1 Å; EMD-7531; PIC assembled at room temperature; assembly buffer not given in the material. To be noted: protein: native;recombinant;recombinant; tags: TAP tag on C53 C terminus (TEV-cleaved, calmodulin eluted);C-terminal 6xHis;C-terminal 6xHis; copies: 1;1;1;1;1;1;1;1;1;1;1;1;1;1;1;1;1;1;1; label: biotin 5' on strand 3; 10-nt mismatched bubble; strands 2 and 3 both anneal to strand 1 (nick between them).

Another data set has as its target T3, Bdp1 Δ355–372 (Saccharomyces cerevisiae, UniProt P46678 1-594, Δ355–372).
T3 construct: Same construct as m3 apart from the deletion; source: E. coli BL21 (DE3) pRARE, purified as the wild-type protein
T3 sequence (looked up): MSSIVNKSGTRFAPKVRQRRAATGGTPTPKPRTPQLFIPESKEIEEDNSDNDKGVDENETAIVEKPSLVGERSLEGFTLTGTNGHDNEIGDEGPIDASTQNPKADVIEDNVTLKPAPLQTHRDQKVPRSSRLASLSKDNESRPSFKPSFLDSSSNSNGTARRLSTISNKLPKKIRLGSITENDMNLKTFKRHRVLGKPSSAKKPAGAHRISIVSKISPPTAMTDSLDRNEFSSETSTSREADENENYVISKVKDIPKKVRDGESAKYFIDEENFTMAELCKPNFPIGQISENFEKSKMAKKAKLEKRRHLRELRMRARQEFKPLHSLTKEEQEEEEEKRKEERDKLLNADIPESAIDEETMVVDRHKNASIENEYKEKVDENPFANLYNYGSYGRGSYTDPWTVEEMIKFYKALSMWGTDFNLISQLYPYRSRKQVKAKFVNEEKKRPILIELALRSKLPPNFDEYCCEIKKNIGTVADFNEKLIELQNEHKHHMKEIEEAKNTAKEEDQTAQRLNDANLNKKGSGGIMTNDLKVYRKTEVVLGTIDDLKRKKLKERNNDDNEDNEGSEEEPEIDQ
As to the kind of experiment: cryo-EM structure; Pol III iOC (intermediate OC), about 8.5 Å (TFIIIB lobe 15-25 Å): assembly with Bdp1 Δ355–372 on the closed DNA scaffold, assembly buffer plus 60 mM KCl; map only, no model deposited. As to conditions: both partners purified.

Data set [5] deals with T2, RNA polymerase III (17 subunits, incl. …). As to the kind of experiment: cryo-EM; complex on EC scaffold, RNA not seen; 4.5 Å; EMD-7533; PIC assembled at room temperature; assembly buffer not given in the material. As to conditions: protein: native;recombinant;recombinant; tags: TAP tag on C53 C terminus (TEV-cleaved, calmodulin eluted);C-terminal 6xHis;C-terminal 6xHis; copies: 1;1;1;1;1;1;1;1;1;1;1;1;1;1;1;1;1;1;1; label: biotin 5' on strand 3; mismatched bubble +12 to +22 with RNA (strand 4); strands 2 and 3 both anneal to strand 1 (2-nt gap between them).

B1: C34 subunit of Pol III (natural protein, Saccharomyces cerevisiae, UniProt P32910 1-317, looked up)
chain: MSGMIENGLQLSDNAKTLHSQMMSKGIGALFTQQELQKQMGIGSLTDLMSIVQELLDKNLIKLVKQNDELKFQGVLESEAQKKATMSAEEALVYSYIEASGREGIWSKTIKARTNLHQHVVLKCLKSLESQRYVKSVKSVKFPTRKIYMLYSLQPSVDITGGPWFTDGELDIEFINSLLTIVWRFISENTFPNGFKNFENGPKKNVFYAPNVKNYSTTQEILEFITAAQVANVELTPSNIRSLCEVLVYDDKLEKVTHDCYRVTLESILQMNQGEGEPEAGNKALEDEEEFSIFNYFKMFPASKHDKEVVYFDEWTI
notes: C34, subunit of the Pol III-specific heterotrimer C82/34/31, S. cerevisiae; WH1 residues 10-77, WH2 residues 78-158; Stood in the assay as a subunit of the whole Pol III; source: endogenous, purified from S. cerevisiae as a subunit of Pol III (TAP tag on C53)
On to B1, for which the binding result in the data set with Bdp1 (B double prime) was “binds”.

B2: TATA box-binding protein (TBP) core domain, the TBPc part of the chimera Brf1N-TBPc-Brf1C (domain or fragment, Saccharomyces cerevisiae, UniProt P13393 61-240, looked up)
chain: SGIVPTLQNIVATVTLGCRLDLKTVALHARNAEYNPKRFAAVIMRIREPKTTALIFASGKMVVTGAKSEDDSKLASRKYARIIQKIGFAAKFTDFKIQNIVGSCDVKFPIRLEGLAFSHGTFSSYEPELFPGLIYRMVKPKIVLLIFVSGKIVLTGAKQREEIYQAFEAIYPVLSEFRKM
notes: TBP, S. cerevisiae, core domain residues 61-240; In the assay TBPc stood inside the chain of the chimera m2, between Brf1 1-382 and Brf1 439-end; this molecule is made only for the rows of TBP with Brf1 and Bdp1; source: E. coli BL21 (DE3) pRARE, purified, as part of the chimera m2
For the molecule B2, the binding result in the data set with Bdp1 (B double prime) is given as “binds”.

B3: ITC scaffold with 6-mer RNA (mixed)
DNA 1: CAACTTGGCCATGGAGTCATTTTATCTTGTGTCACTTTTACAGAAAAAGTATTACTAATATATGTTGAAAAACTGGGGAATTCCATGGTCCGTA
DNA 2: TTTTCAACATATATTAGTAATACTTTTTCTGTATTTTTTTTTTTTTTTTAAATGACTCCATGGCCAAGTTG
DNA 3: TACGGACCATGGAATTCCCCAGT
?: ACAAGA
With B3, in data set [1], the binding result is “binds”.

B4: CC (closed complex) scaffold (dsDNA)
DNA 1: CAACTTGGCCATGGAGTCATTTTATCTTGTGTCACTTTTACAGAAAAAGTATTACTAATATATGTTGAAAAACTGGGGAATTCCATGGTCCGTA
DNA 2: TTTTCAACATATATTAGTAATACTTTTTCTGTAAAAGTGACACAAGATAAAATGACTCCATGGCCAAGTTG
DNA 3: TACGGACCATGGAATTCCCCAGT
Regarding B4, the binding result in data set [2] and in data set [3] was “binds” throughout.

B5: OC (open complex) scaffold (dsDNA)
DNA 1: CAACTTGGCCATGGAGTCATTTTATCTTGTGTCACTTTTACAGAAAAAGTATTACTAATATATGTTGAAAAACTGGGGAATTCCATGGTCCGTA
DNA 2: TTTTCAACATATATTAGTAATACTTTTTCTGTATTTTTTTTTTAAGATAAAATGACTCCATGGCCAAGTTG
DNA 3: TACGGACCATGGAATTCCCCAGT
With B5, in data set [4], the binding result is reported as “binds”.

B6: chimera protein Brf1N-TBPc-Brf1C (other, Saccharomyces cerevisiae)
chain: MPVCKNCHGTEFERDLSNANNDLVCKACGVVSEDNPIVSEVTFGETSAGAAVVQGSFIGAGQSHAAFGGSSALESREATLNNARRKLRAVSYALHIPEYITDAAFQWYKLALANNFVQGRRSQNVIASCLYVACRKEKTHHMLIDFSSRLQVSVYSIGATFLKMVKKLHITELPLADPSLFIQHFAEKLDLADKKIKVVKDAVKLAQRMSKDWMFEGRRPAGIAGACILLACRMNNLRRTHTEIVAVSHVAEETLQQRLNEFKNTKAAKLSVQKFRENDVEDGEARPPSFVKNRKKERKIKDSLDKEEMFQTSEEALNKNPILTQVLGEQELSSKEVLFYLKQFSERRARVVERIKATNGIDGENIYHEGSENETRKRKLSEAMPWSGIVPTLQNIVATVTLGCRLDLKTVALHARNAEYNPKRFAAVIMRIREPKTTALIFASGKMVVTGAKSEDDSKLASRKYARIIQKIGFAAKFTDFKIQNIVGSCDVKFPIRLEGLAFSHGTFSSYEPELFPGLIYRMVKPKIVLLIFVSGKIVLTGAKQREEIYQAFEAIYPVLSEFRKMGSGSGSGSGSGSPRNLHLLPTTDTYLSKVSDDPDNLEDVDDEELNAHLLNEEASKLKERIWIGLNADFLLEQESKRLKQEADIATGNTSVKKKRTRRRNNTRSDEPTKTVDAAAAIGLMSDLQDKSGLHAALKAAEESGDFTTADSVKNMLQKASFSKKINYDAIDGLFR
notes: Brf1 (TFIIB-related factor), S. cerevisiae, N-terminal part up to residue 382 (residues 383-438 of Brf1 were replaced by TBPc); linker between Brf1 residue 382 and TBP residue 61; linker between TBP residue 240 and Brf1 residue 439; Brf1, S. cerevisiae, C-terminal part from residue 439 to the end of full-length Brf1; Cloned in pET21b(+) at SalI and NotI; The printed offset (632-649 in the chimera …)
On to B6, for which the binding result with Bdp1 Δ355–372 and with Bdp1 (B double prime) was “binds” throughout.

B7: EC scaffold with 20-mer RNA (mixed)
DNA 1: ACGCCTTAACCAACTTGGCCATGGAGTCATTTTATCTTGTGTCACTTTTACAGAAAAAGTATTACTAATATATGTTGAAAAACTGGGGAATTCCATGGTCCGTA
DNA 2: TTCAACATATATTAGTAATACTTTTTCTGTAAAAGTGACACAAGATAAAAATTTTTTTTGTCCAAGTTGGTTAAGGCGT
DNA 3: TACGGACCATGGAATTCCCCAGT
RNA: UUUUUUUUUUUAGACUCCAU
Regarding B7, the binding result in data set [5] was “binds”.

(Values after PMC6066478, “Structural visualization of RNA polymerase III transcription machineries” (Cell Discovery, 2018).)
